According to PMC12117093:

Molecular target: 5-IAF-labeled p53-TAD A63C mutant (UniProt P04637)
Assay: fluorescence polarisation

Kd: 42 µM
Substance: FOXO4 Forkhead DNA-binding domain (FOXO4-DBD, residues 86-211) (from UniProt P98177 86-211) (domain or fragment)
